Data reported in the supplement of paper PMC9112550, “Optimization of the antimicrobial peptide Bac7 by deep mutational scanning” (BMC Biology, 2022).

Test system: Escherichia coli TOP10
Test: shrunken log2 fold change of peptide-encoding DNA abundance (4.5 h post-induction vs induction); higher = less antimicrobial activity (less host growth inhibition)
Conditions: time post-induction: 4.5 h; library: site-saturation at positions 5, 18, 19, 20
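Also: peptides expressed intracellularly from a pBAD plasmid library in pooled LB shake-flask culture, induced with 0.3% L-arabinose, DNA abundance read by NGS, three biological replicates, DESeq2 with apeglm shrinkage.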

Sequence	shrunken log2 fold change
RRIRKRPPRLPRPRPRPEMHPRP	0.0496
RRIRARPPRLPRPRPRPHAMPRP	0.177
RRIRERPPRLPRPRPRPPILPRP	-0.471
RRIRQRPPRLPRPRPRPECCPRP	0.267
RRIRVRPPRLPRPRPRPQFVPRP	-0.122
RRIRYRPPRLPRPRPRPCKTPRP	-0.154
RRIRCRPPRLPRPRPRPYILPRP	-1.53
RRIRIRPPRLPRPRPRPMFKPRP	-0.286
RRIRFRPPRLPRPRPRPIIQPRP	-0.786
RRIRSRPPRLPRPRPRPLDNPRP	-0.339
RRIRTRPPRLPRPRPRPPLHPRP	0.0532
RRIRQRPPRLPRPRPRPRERPRP	0.553
RRIRERPPRLPRPRPRPGDAPRP	0.106
RRIRWRPPRLPRPRPRPATTPRP	0.859
RRIRKRPPRLPRPRPRPKLLPRP	-0.158
RRIRRRPPRLPRPRPRPRQCPRP	0.596
RRIRNRPPRLPRPRPRPHNKPRP	-0.483
RRIRGRPPRLPRPRPRPYIGPRP	0.018
RRIRKRPPRLPRPRPRPVMYPRP	-0.144
RRIRTRPPRLPRPRPRPRPKPRP	0.303
RRIRHRPPRLPRPRPRPDPNPRP	-0.0239
RRIRKRPPRLPRPRPRPKTPPRP	0.477
RRIRYRPPRLPRPRPRPQSPPRP	-0.0354
RRIRLRPPRLPRPRPRPVDCPRP	-0.456
RRIRDRPPRLPRPRPRPLTHPRP	0.179

Sequence	shrunken log2 fold change
RRIRWRPPRLPRPRPRPGHQPRP	-0.0269
RRIRWRPPRLPRPRPRPGLKPRP	-0.109
RRIRQRPPRLPRPRPRPLKQPRP	-0.151
RRIRLRPPRLPRPRPRPIRVPRP	0.101
RRIRDRPPRLPRPRPRPSDEPRP	0.406
RRIRDRPPRLPRPRPRPQYFPRP	0.0205
RRIRNRPPRLPRPRPRPDNVPRP	-0.0161
RRIRLRPPRLPRPRPRPYPNPRP	-1.27
RRIRMRPPRLPRPRPRPHMPPRP	-0.206
RRIRSRPPRLPRPRPRPKWRPRP	0.29
RRIRERPPRLPRPRPRPFSKPRP	-0.0819
RRIRERPPRLPRPRPRPCVNPRP	-0.182
RRIRVRPPRLPRPRPRPWLKPRP	0.151
RRIRGRPPRLPRPRPRPWRHPRP	-0.0287
RRIRWRPPRLPRPRPRPRDEPRP	0.0548
RRIRWRPPRLPRPRPRPPNFPRP	0.015
RRIRDRPPRLPRPRPRPTMAPRP	0.695
RRIRFRPPRLPRPRPRPQWDPRP	-0.272
RRIRCRPPRLPRPRPRPAQRPRP	0.613
RRIRTRPPRLPRPRPRPRYFPRP	-0.429
RRIRLRPPRLPRPRPRPDLNPRP	-1.09
RRIRYRPPRLPRPRPRPDEGPRP	-0.226
RRIRLRPPRLPRPRPRPEQNPRP	0.41
RRIRRRPPRLPRPRPRPRYGPRP	0.0155
RRIRYRPPRLPRPRPRPTPNPRP	0.507

Sequence	shrunken log2 fold change
RRIRQRPPRLPRPRPRPAVHPRP	-0.0227
RRIRHRPPRLPRPRPRPTDRPRP	0.0577
RRIRKRPPRLPRPRPRPFCTPRP	-0.0968
RRIRQRPPRLPRPRPRPGGQPRP	-0.137
RRIRKRPPRLPRPRPRPWRLPRP	-0.0807
RRIRSRPPRLPRPRPRPDPSPRP	0.0173
RRIRLRPPRLPRPRPRPSTWPRP	-0.53
RRIRERPPRLPRPRPRPMVMPRP	-0.368
RRIRVRPPRLPRPRPRPAILPRP	-0.204
RRIRQRPPRLPRPRPRPEFLPRP	0.025
RRIRMRPPRLPRPRPRPIAPPRP	0.47
RRIRERPPRLPRPRPRPAEWPRP	0.143
RRIRRRPPRLPRPRPRPIIDPRP	-0.125
RRIRTRPPRLPRPRPRPYAHPRP	-0.239
RRIRDRPPRLPRPRPRPHSGPRP	-0.0339
RRIRFRPPRLPRPRPRPAIIPRP	-0.149
RRIRHRPPRLPRPRPRPGKDPRP	-0.0922
RRIRNRPPRLPRPRPRPKDAPRP	0.0655
RRIRQRPPRLPRPRPRPNRIPRP	-0.0402
RRIRCRPPRLPRPRPRPQKCPRP	-0.0526
RRIRFRPPRLPRPRPRPEHVPRP	-0.0205
RRIRWRPPRLPRPRPRPRPVPRP	0.728
RRIRFRPPRLPRPRPRPQIIPRP	-0.149
RRIRRRPPRLPRPRPRPYCWPRP	-0.474
RRIRFRPPRLPRPRPRPFCAPRP	-0.102

Sequence	shrunken log2 fold change
RRIRMRPPRLPRPRPRPTLDPRP	1.35
RRIRDRPPRLPRPRPRPKQPPRP	-0.0112
RRIRNRPPRLPRPRPRPEDSPRP	-0.0784
RRIRYRPPRLPRPRPRPSQSPRP	-0.804
RRIRLRPPRLPRPRPRPYAQPRP	-0.599
RRIRWRPPRLPRPRPRPTVIPRP	0.0385
RRIRTRPPRLPRPRPRPQEQPRP	0.021
RRIRERPPRLPRPRPRPYMSPRP	-0.0135
RRIRFRPPRLPRPRPRPRVCPRP	0.152
RRIRDRPPRLPRPRPRPMHVPRP	-0.00476
RRIRIRPPRLPRPRPRPNGPPRP	0.00676
RRIRPRPPRLPRPRPRPWPHPRP	0.0318
RRIRTRPPRLPRPRPRPVNYPRP	0.0177
RRIRCRPPRLPRPRPRPKHKPRP	-0.164
RRIRSRPPRLPRPRPRPGFLPRP	0.078
RRIRMRPPRLPRPRPRPAVYPRP	0.265
RRIRYRPPRLPRPRPRPEGTPRP	-0.0176
RRIRHRPPRLPRPRPRPLSNPRP	-0.174
RRIRVRPPRLPRPRPRPDGWPRP	0.223
RRIRIRPPRLPRPRPRPDTEPRP	-0.853
RRIRHRPPRLPRPRPRPRFYPRP	-0.015
RRIRCRPPRLPRPRPRPSRDPRP	0.189
RRIRARPPRLPRPRPRPHNAPRP	-0.0368
RRIRTRPPRLPRPRPRPNCLPRP	-0.0709
RRIRKRPPRLPRPRPRPGSFPRP	0.133

Sequence	shrunken log2 fold change
RRIRERPPRLPRPRPRPRSIPRP	0.0163
RRIRIRPPRLPRPRPRPTCMPRP	-0.059
RRIRRRPPRLPRPRPRPNVGPRP	0.0319
RRIRIRPPRLPRPRPRPVGLPRP	-0.0289
RRIRHRPPRLPRPRPRPMRQPRP	0.143
RRIRWRPPRLPRPRPRPHNAPRP	-0.0847
RRIRWRPPRLPRPRPRPMYAPRP	0.325
RRIRMRPPRLPRPRPRPMVCPRP	0.204
RRIRTRPPRLPRPRPRPQWLPRP	-0.455
RRIRDRPPRLPRPRPRPNSLPRP	0.0174
RRIRERPPRLPRPRPRPKLFPRP	-0.0593
RRIRWRPPRLPRPRPRPDRLPRP	-0.0216
RRIRVRPPRLPRPRPRPRIVPRP	0.166
RRIRLRPPRLPRPRPRPSQRPRP	-0.00321
RRIRMRPPRLPRPRPRPDYYPRP	-0.111
RRIRKRPPRLPRPRPRPHNNPRP	-0.244
RRIRSRPPRLPRPRPRPMCQPRP	-0.0136
RRIRCRPPRLPRPRPRPFCGPRP	0.011
RRIRMRPPRLPRPRPRPNHPPRP	-0.0733
RRIRQRPPRLPRPRPRPTYIPRP	-0.0622
RRIRHRPPRLPRPRPRPSFVPRP	-0.38
RRIRARPPRLPRPRPRPESFPRP	0.807
RRIRARPPRLPRPRPRPANRPRP	0.467
RRIRFRPPRLPRPRPRPGWHPRP	0.277
RRIRGRPPRLPRPRPRPTTEPRP	0.836

Sequence	shrunken log2 fold change
RRIRTRPPRLPRPRPRPYKHPRP	-0.518
RRIRKRPPRLPRPRPRPRYCPRP	-0.142
RRIRKRPPRLPRPRPRPIVWPRP	0.527
RRIRTRPPRLPRPRPRPCEIPRP	0.0393
RRIRMRPPRLPRPRPRPKYYPRP	-0.0662
RRIRQRPPRLPRPRPRPKWGPRP	-0.0154
RRIRCRPPRLPRPRPRPRLQPRP	0.425
RRIRNRPPRLPRPRPRPGHMPRP	-0.147
RRIRPRPPRLPRPRPRPAAIPRP	0.0249
RRIRDRPPRLPRPRPRPRQAPRP	0.102
RRIRCRPPRLPRPRPRPLACPRP	-0.236
RRIRGRPPRLPRPRPRPTYRPRP	0.138
RRIRERPPRLPRPRPRPRHSPRP	-0.137
RRIRCRPPRLPRPRPRPLYYPRP	-1.03
RRIRIRPPRLPRPRPRPFCMPRP	-0.4
RRIRHRPPRLPRPRPRPERAPRP	0.305
RRIRERPPRLPRPRPRPTGLPRP	0.235
RRIRARPPRLPRPRPRPCVFPRP	0.39
RRIRGRPPRLPRPRPRPQWRPRP	0.612
RRIRPRPPRLPRPRPRPIIMPRP	0.195
RRIRPRPPRLPRPRPRPFFKPRP	-0.0682
RRIRWRPPRLPRPRPRPGDWPRP	0.655
RRIRCRPPRLPRPRPRPCYEPRP	-0.663
RRIRLRPPRLPRPRPRPCCVPRP	0.0472
RRIRKRPPRLPRPRPRPYCYPRP	-0.182
